# Results as given in PMC5548840, “The FAD synthetase from the human pathogen Streptococcus pneumoniae: a bifunctional enzyme exhibiting activity-dependent redox requirements” (Scientific Reports, 2017).
# What was measured:
# SpnFADS [1] = molecular target: T1, SpnFADS (Streptococcus pneumoniae, UniProt A0A0H2UPY5); assay: isothermal titration calorimetry; type: binding; conditions: 20 mM PIPES pH 7.0, 20 °C, free enzyme
# T1 construct: gene SP_1110; full length (modules 1-186 FMNAT, 187-305 RFK); N-terminal His6-PreScission tag removed; codon-optimised synthetic gene in modified pET-15b, E. coli BL21 Star (DE3); 34,521 Da; mainly monomer
# Source text: isothermal titration calorimetry on SpnFADS
# SpnFADS [2] = molecular target: T1, SpnFADS; assay: HPLC of flavin products, steady-state FMNAT activity; type: biochemical; conditions: 20 mM PIPES pH 7.0, 25 °C
# Source text: HPLC of flavin products, steady-state FMNAT activity on SpnFADS
# SpnFADS [3] = molecular target: T1, SpnFADS; assay: HPLC of flavin products, steady-state RFK activity; type: biochemical; conditions: saturating ATP (412 μM), 20 mM PIPES pH 7.0, 25 °C, 0.8 mM MgCl2, no dithionite
# Source text: HPLC of flavin products, steady-state RFK activity on SpnFADS
# [4] = SEC; 20 uM pure SpnFADS on a calibrated Superdex 200 10/300 GL column, 50 mM Tris/HCl, pH 8.0, 150 mM NaCl; freshly purified fraction considered as monomeric
# [5] = molecular target: FAD synthetase from Streptococcus pneumoniae (SpnFADS) (Streptococcus pneumoniae); assay: cross-linking; pure SpnFADS in 50 mM KHPO4, pH 8.0, with BS3 crosslinker for 2 h at 4 °C, then 15% SDS-PAGE
# [6] = molecular target: FAD synthetase from Streptococcus pneumoniae (SpnFADS) (Streptococcus pneumoniae); assay: atomic force microscopy; 0.5 uM SpnFADS on mica, no ligand; 20 mM PIPES, pH 6.0, 2 mM DTT, 0.8 mM MgCl2, room temperature
# [7] = molecular target: FAD synthetase from Streptococcus pneumoniae (SpnFADS) (Streptococcus pneumoniae); assay: atomic force microscopy; 0.5 uM SpnFADS on mica, with 250 uM ADP; 20 mM PIPES, pH 6.0, 2 mM DTT, 0.8 mM MgCl2, room temperature
# [8] = molecular target: FAD synthetase from Streptococcus pneumoniae (SpnFADS) (Streptococcus pneumoniae); assay: atomic force microscopy; 0.5 uM SpnFADS on mica, with 250 uM ATP; 20 mM PIPES, pH 6.0, 2 mM DTT, 0.8 mM MgCl2, room temperature
# [9] = molecular target: FAD synthetase from Streptococcus pneumoniae (SpnFADS) (Streptococcus pneumoniae); assay: atomic force microscopy; 0.5 uM SpnFADS on mica, with 250 uM ATP and 50 uM RF; 20 mM PIPES, pH 6.0, 2 mM DTT, 0.8 mM MgCl2, room temperature
# [10] = molecular target: FAD synthetase from Streptococcus pneumoniae (SpnFADS) (Streptococcus pneumoniae); assay: atomic force microscopy; 0.5 uM SpnFADS on mica, with 250 uM ADP and 50 uM FMN; 20 mM PIPES, pH 6.0, 2 mM DTT, 0.8 mM MgCl2, room temperature
# [11] = molecular target: FAD synthetase from Streptococcus pneumoniae (SpnFADS) (Streptococcus pneumoniae); assay: atomic force microscopy; 0.5 uM SpnFADS on mica, with 250 uM ATP and 50 uM FMN; 20 mM PIPES, pH 6.0, 2 mM DTT, 0.8 mM MgCl2, room temperature
# [12] = molecular target: FAD synthetase from Streptococcus pneumoniae (SpnFADS) (Streptococcus pneumoniae); assay: atomic force microscopy; 0.5 uM SpnFADS on mica, with 50 uM FAD and 250 uM PPi; 20 mM PIPES, pH 6.0, 2 mM DTT, 0.8 mM MgCl2, room temperature
# [13] = 0.8 mM MgCl2, 4 mM sodium dithionite, 10 mM glucose, 0.5 U/mL glucose oxidase, reduced flavin, single site (FMNAT)
# T1 sequence (A0A0H2UPY5 entry or part of it): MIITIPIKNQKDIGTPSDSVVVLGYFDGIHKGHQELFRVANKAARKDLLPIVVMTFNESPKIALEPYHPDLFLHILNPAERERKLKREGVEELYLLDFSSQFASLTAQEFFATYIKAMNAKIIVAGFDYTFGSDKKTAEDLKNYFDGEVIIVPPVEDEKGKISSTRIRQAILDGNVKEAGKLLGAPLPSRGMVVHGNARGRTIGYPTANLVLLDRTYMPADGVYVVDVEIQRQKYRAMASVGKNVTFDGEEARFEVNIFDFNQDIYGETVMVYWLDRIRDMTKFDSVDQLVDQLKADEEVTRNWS
compound,measurement,setting,value
Nc1ncnc2c1ncn2[C@@H]1O[C@H](COP(=O)(O)OP(=O)(O)O)[C@@H](O)[C@H]1O [ADP],K d (μM),"SpnFADS [1]; no MgCl2, single site",4.1 ± 20% μM
Nc1ncnc2c1ncn2[C@@H]1O[C@H](COP(=O)(O)OP(=O)(O)OP(=O)(O)O)[C@@H](O)[C@H]1O [ATP],K d (μM),"SpnFADS [1]; 0.8 mM MgCl2, single site",9.4 ± 20% μM
same,K m ^ATP (μM),"SpnFADS [2]; FMN 27.7 µM for kcat, 0.8 mM MgCl2, 3 mM sodium dithionite",31.6 ± 10% µM
Cc1cc2nc3c(=O)[nH]c(=O)nc-3n(C[C@H](O)[C@H](O)[C@H](O)CO)c2cc1C [RF],K m ^RF (μM),SpnFADS [3],0.9 ± 10% μM
Cc1cc2c(cc1C)N(C[C@H](O)[C@H](O)[C@H](O)COP(=O)(O)OP(=O)(O)OC[C@H]1O[C@@H](n3cnc4c(N)ncnc43)[C@H](O)[C@@H]1O)c1[nH]c(=O)[nH]c(=O)c1N2 [reduced FAD],K d (μM),SpnFADS [1]; [13],12.5 ± 20% μM
Cc1cc2c(cc1C)N(C[C@H](O)[C@H](O)[C@H](O)COP(=O)(O)O)c1[nH]c(=O)[nH]c(=O)c1N2 [reduced FMN],K d,SpnFADS [1]; [13],0.8 ± 20% μM
same,K m ^RF (μM),"SpnFADS [2]; saturating ATP (252 μM), 0.8 mM MgCl2, 3 mM sodium dithionite (flavin reduced)",9.8 ± 10% µM
FAD synthetase from Streptococcus pneumoniae (SpnFADS),percent of the protein in the main peak at ~14.5 mL (monomers or dimers),[4],∼96% of the protein
FAD synthetase from Streptococcus pneumoniae (SpnFADS) (enzyme),stoichiometry N,[5],2
same,% of features that are dimers,[6],3%
same,% of features that are monomers,[6],97%
same,% of molecules in dimers,[6],6%
same,% of molecules in monomers,[6],94%
same,% of features that are dimers,[7],7%
same,% of features that are monomers,[7],60%
same,% of features that are tetramers,[7],20%
same,% of features that are trimers,[7],13%
same,% of molecules in dimers,[7],7%
same,% of molecules in monomers,[7],31%
same,% of molecules in tetramers,[7],47%
same,% of molecules in trimers,[7],20%
same,% of features that are dimers,[8],12%
same,% of features that are monomers,[8],70%
same,% of features that are trimers,[8],18%
same,% of molecules in dimers,[8],16%
same,% of molecules in monomers,[8],47%
same,% of molecules in trimers,[8],37%
same,% of features that are dimers,[9],20%
same,% of features that are monomers,[9],73%
same,% of features that are trimers,[9],7%
same,% of molecules in dimers,[9],30%
same,% of molecules in monomers,[9],54%
same,% of molecules in trimers,[9],16%
same,% of features that are dimers,[10],15%
same,% of features that are monomers,[10],63%
same,% of features that are trimers,[10],22%
same,% of molecules in dimers,[10],19%
same,% of molecules in monomers,[10],40%
same,% of molecules in trimers,[10],41%
same,% of features that are dimers,[11],7%
same,% of features that are monomers,[11],73%
same,% of features that are trimers,[11],20%
same,% of molecules in dimers,[11],9%
same,% of molecules in monomers,[11],50%
same,% of molecules in trimers,[11],41%
same,% of features that are dimers,[12],7%
same,% of features that are monomers,[12],73%
same,% of features that are trimers,[12],20%
same,% of molecules in dimers,[12],9%
same,% of molecules in monomers,[12],50%
same,% of molecules in trimers,[12],41%
